This is an account of results in patent US20250270332A1 (ANTLERA THERAPEUTICS, published 2025).

B1: diabody-Fc-diabody FZD4 CM0199 (bispecific antibody)
chain 1: EFEVQLVESGGGLVQPGGSLRLSCAASGFNSSFYFMHWVRQAPGKGLEWVATVYPYLDYTYYADSVKGRFTISADTSKNTAYLQMNSLRAEDTAVYYCARAFPGSYHPMDYWGQGTLVTVSSGGGGSDIQMTQSPSSLSASVGDRVTITCRASQSVSSAVAWYQQKPGKAPKLLIYSASSLYSGVPSRFSGSRSGTDFTLTISSLQPEDFATYYCQQSSYSLITFGQGTKVEIKLEDKTHTKVEPKTSDKTHTCPPCPAPELLGGPSVFLFPPKPKDTLMISRTPEVTCVVVDVSHEDPEVKFNWYVDGVEVHNAKTKPREEQYNSTYRVVSVLTVLHQDWLNGKEYKCKVSNKALPAPIEKTISKAKGQPREPMVFDLPPSREEMTKNQVSLWCMVKGFYPSDIAVEWESNGQPENNYKTTPPVLDSDGSFFLYSKLTVDKSRWQQGNVFSCSVMHEALHNHYTQKSLSLSPGKSGSETPGTSESATPESGGGEVQLVESGGGLVQPGGSLRLSCAASGFNFSSSSIHWVRQAPGKGLEWVASISSSYGYTYYADSVKGRFTISADTSKNTAYLQMNSLRAEDTAVYYCARGGSGVSHYGSVYYSWWALDYWGQGTLVTVSSGGGGSDIQMTQSPSSLSASVGDRVTITCRASQSVSSAVAWYQQKPGKAPKLLIYSASSLYSGVPSRFSGSRSGTDFTLTISSLQPEDFATYYCQQASYAPITFGQGTKVEIK
chain 2: EFEVQLVESGGGLVQPGGSLRLSCAASGFNSSFYFMHWVRQAPGKGLEWVATVYPYLDYTYYADSVKGRFTISADTSKNTAYLQMNSLRAEDTAVYYCARAFPGSYHPMDYWGQGTLVTVSSGGGGSDIQMTQSPSSLSASVGDRVTITCRASQSVSSAVAWYQQKPGKAPKLLIYSASSLYSGVPSRFSGSRSGTDFTLTISSLQPEDFATYYCQQSSYSLITFGQGTKVEIKLEDKTHTKVEPKSSDKTHNCPPCPAPELLGGPSVFLFPPKPKDTLMISRTPEVTCVVVDVSHEDPEVKFNWYVDGVEVHNAKTKPREEQYNSTYRVVSVLTVLHQDWLNGKEYKCKVSNKALPAPIEKTISKAKGQPREPQVYTLPPIRELMTSNQVSLSCAVKGFYPSDIAVEWESNGQPENNYKTTPPVLDSDGSFFLVSKLTVDKSRWQQGNVFSCSVMHEALHNHYTQKSLSLSPGKSGSETPGTSESATPESGGGEVQLVESGGGLVQPGGSLRLSCAASGFNLSYYYMHWVRQAPGKGLEWVASIYSSYGYTYYADSVKGRFTISADTSKNTAYLQMNSLRAEDTAVYYCARWSHVSGHYSGMDYWGQGTLVTVSSGGGGSDIQMTQSPSSLSASVGDRVTITCRASQSVSSAVAWYQQKPGKAPKLLIYSASSLYSGVPSRFSGSRSGTDFTLTISSLQPEDFATYYCQQSSYSLITFGQGTKVEIK
notes: Diabody-Fc-diabody format FZD agonist that recognizes FZD4 and LRP5; also called F4L5.13
B2: FZD4 Agonist ANT16 (bispecific antibody, human IgG1, kappa, N297G)
heavy 1: EVQLVESGGGLVQPGGSLRLSCAASGFDFTAYAMHWVRQAPGKGLEWVASIYPSGGYTAYADSVKGRFTISADTSKNTAYLQMNSLRAEDTAVYYCARRSYYFALDYWGQGTLVTVSSGGGGSDIQMTQSPSSLSASVGDRVTITCRASQSVSSAVAWYQQKPGKAPKLLIYSASSLYSGVPSRFSGSRSGTDFTLTISSLQPEDFATYYCQQYWAYYSPITFGQGTKVEIKGGGGSGGGGSEPKTSDKTHTCPPCPAPELLGGPSVFLFPPKPKDTLMISRTPEVTCVVVAVSHEDPEVKFNWYVDGVEVHNAKTKPREEQYGSTYRVVSVLTVLHQDWLNGKEYKCKVSNKALPAPIEKTISKAKGQPREPMVFDLPPSREEMTKNQVSLWCMVKGFYPSDIAVEWESNGQPENNYKTTPPVLDSDGSFFLYSKLTVDKSRWQQGNVFSCSVMHEALHNHYTQKSLSLSPGKGGGSGGGSGGGSGGGSGSTGEVQLVESGGGLVQPGGSLRLSCAASGFTLSSYSMHWVRQAPGKGLEWVAYISSYYGYTYYADSVKGRFTISADTSKNTAYLQMNSLRAEDTAVYYCARPAPGHWGFDYWGQGTLVTVSSASTKGPSVFPLAPSSKSTSGGTAALGCLVKDYFPEPVTVSWNSGALTSGVHTFPAVLQSSGLYSLSSVVTVPSSSLGTQTYICNVNHKPSNTKVDKKVEPKSCDKTHT
heavy 2: EVQLVESGGGLVQPGGSLRLSCAASGFDFSSSSIHWVRQAPGKGLEWVASISSSYGYTYYADSVKGRFTISADTSKNTAYLQMNSLRAEDTAVYYCARSWAMDYWGQGTLVTVSSGGGGSDIQMTQSPSSLSASVGDRVTITCRASQSVSSAVAWYQQKPGKAPKLLIYSASDLYSGVPSRFSGSRSGTDFTLTISSLQPEDFATYYCQQYAGAGLITFGQGTKVEIKGGGGSGGGGSEPKSSDKTHTCPPCPAPELLGGPSVFLFPPKPKDTLMISRTPEVTCVVVAVSHEDPEVKFNWYVDGVEVHNAKTKPREEQYGSTYRVVSVLTVLHQDWLNGKEYKCKVSNKALPAPIEKTISKAKGQPREPQVYTLPPIRELMTSNQVSLSCAVKGFYPSDIAVEWESNGQPENNYKTTPPVLDSDGSFFLVSKLTVDKSRWQQGNVFSCSVMHEALHNHYTQKSLSLSPGKGGGSGGGSGGGSGGGSGSTGEVQLVESGGGLVQPGGSLRLSCAASGFTLSSYSMHWVRQAPGKGLEWVAYISSYYGYTYYADSVKGRFTISADTSKNTAYLQMNSLRAEDTAVYYCARPAPGHWGFDYWGQGTLVTVSSASTKGPSVFPLAPSSKSTSGGTAALGCLVKDYFPEPVTVSWNSGALTSGVHTFPAVLQSSGLYSLSSVVTVPSSSLGTQTYICNVNHKPSNTKVDKKVEPKSCDKTHT
light: DIQMTQSPSSLSASVGDRVTITCRASQSVSSAVAWYQQKPGKAPKLLIYSASSLYSGVPSRFSGSRSGTDFTLTISSLQPEDFATYYCQQWYYAPITFGQGTKVEIKRTVAAPSVFIFPPSDEQLKSGTASVVCLLNNFYPREAKVQWKVDNALQSGNSQESVTEQDSKDSTYSLSSTLTLSKADYEKHKVYACEVTHQGLSSPVTKSFNRGEC
notes: Diabody-Fc-Fab format: bispecific LRP5 diabody at the N-terminus, two FZD4 Fabs at the C-terminus
B3: FZD4 Agonist ANT18 (bispecific antibody)
heavy 1: EVQLVESGGGMVQPGGSLRLSCAASGFNFSSSSIHWVRQAPGKGLEWVASISSSYGYTYYADSVKGRFTISADTSKNTAYLQMNSLRAEDTAVYYCARGGSGVSHYGSVYYSWWALDYWGQGTLVTVSSGGGGSDIQMTQSPSSLSASVGDRVTITCRASQSVSSAVAWYQQKPGKAPKLLIYSASSLYSGVPSRFSGSRSGTDFTLTISSLQPEDFATYYCQQASYAPITFGQGTKVEIKGGGGSGGGGSEPKTSDKTHTCPPCPAPELLGGPSVFLFPPKPKDTLMISRTPEVTCVVVAVSHEDPEVKFNWYVDGVEVHNAKTKPREEQYGSTYRVVSVLTVLHQDWLNGKEYKCKVSNKALPAPIEKTISKAKGQPREPMVFDLPPSREEMTKNQVSLWCMVKGFYPSDIAVEWESNGQPENNYKTTPPVLDSDGSFFLYSKLTVDKSRWQQGNVFSCSVMHEALHNHYTQKSLSLSPGKGGGSGGGSGGGSGGGSGSTGEVQLVESGGGLVQPGGSLRLSCAASGFTLSSYSMHWVRQAPGKGLEWVAYISSYYGYTYYADSVKGRFTISADTSKNTAYLQMNSLRAEDTAVYYCARPAPGHWGFDYWGQGTLVTVSSASTKGPSVFPLAPSSKSTSGGTAALGCLVKDYFPEPVTVSWNSGALTSGVHTFPAVLQSSGLYSLSSVVTVPSSSLGTQTYICNVNHKPSNTKVDKKVEPKSCDKTHT
heavy 2: EVQLVESGGGLVQPGGSLRLSCAASGFNLSYYYMHWVRQAPGKGLEWVASIYSSYGYTYYADSVKGRFTISADTSKNTAYLQMNSLRAEDTAVYYCARWSHVSGHYSGMDYWGQGTLVTVSSGGGGSDIQMTQSPSSLSASVGDRVTITCRASQSVSSAVAWYQQKPGKAPKLLIYSASSLYSGVPSRFSGSRSGTDFTLTISSLQPEDFATYYCQQSSYSLITFGQGTKVEIKGGGGSGGGGSEPKSSDKTHTCPPCPAPELLGGPSVFLFPPKPKDTLMISRTPEVTCVVVAVSHEDPEVKFNWYVDGVEVHNAKTKPREEQYGSTYRVVSVLTVLHQDWLNGKEYKCKVSNKALPAPIEKTISKAKGQPREPQVYTLPPIRELMTSNQVSLSCAVKGFYPSDIAVEWESNGQPENNYKTTPPVLDSDGSFFLVSKLTVDKSRWQQGNVFSCSVMHEALHNHYTQKSLSLSPGKGGGSGGGSGGGSGGGSGSTGEVQLVESGGGLVQPGGSLRLSCAASGFTLSSYSMHWVRQAPGKGLEWVAYISSYYGYTYYADSVKGRFTISADTSKNTAYLQMNSLRAEDTAVYYCARPAPGHWGFDYWGQGTLVTVSSASTKGPSVFPLAPSSKSTSGGTAALGCLVKDYFPEPVTVSWNSGALTSGVHTFPAVLQSSGLYSLSSVVTVPSSSLGTQTYICNVNHKPSNTKVDKKVEPKSCDKTHT
light: DIQMTQSPSSLSASVGDRVTITCRASQSVSSAVAWYQQKPGKAPKLLIYSASSLYSGVPSRFSGSRSGTDFTLTISSLQPEDFATYYCQQWYYAPITFGQGTKVEIKRTVAAPSVFIFPPSDEQLKSGTASVVCLLNNFYPREAKVQWKVDNALQSGNSQESVTEQDSKDSTYSLSSTLTLSKADYEKHKVYACEVTHQGLSSPVTKSFNRGEC
notes: Diabody-Fc-Fab format

In this test the target is T1, FZD4 recombinant extracellular domain, Fc fusion (FZD-Fc) (UniProt Q9ULV1 37-180).
T1 construct: extracellular domain; also called FZD4 ECD; not shown: Fc part of the FZD-Fc protein
T1 sequence (looked up): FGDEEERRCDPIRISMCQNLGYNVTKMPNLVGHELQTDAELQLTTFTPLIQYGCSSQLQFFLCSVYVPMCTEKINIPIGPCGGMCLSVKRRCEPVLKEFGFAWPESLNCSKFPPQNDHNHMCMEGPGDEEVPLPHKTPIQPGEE
Nature of the test: BLI (Octet), FZD-Fc captured on AHQ sensors, agonist in solution; apparent affinity. Background: Biolayer interferometry detects binding as a change in optical thickness at a sensor tip.
Consider B1, for which the Kd came out at 0.7 nM.

On to B2, for which the Kd is 0.6 nM.

For the molecule B3, the Kd is 2.6 nM.
